# Laboratory results reported in US20230002496A1 (STAIDSON BEIJING BIOPHARMACEUTICALS, published 2023).
# Target: T1, human GM-CSFRα, full length on cells (human, UniProt P15509 23-400)
# T1 sequence: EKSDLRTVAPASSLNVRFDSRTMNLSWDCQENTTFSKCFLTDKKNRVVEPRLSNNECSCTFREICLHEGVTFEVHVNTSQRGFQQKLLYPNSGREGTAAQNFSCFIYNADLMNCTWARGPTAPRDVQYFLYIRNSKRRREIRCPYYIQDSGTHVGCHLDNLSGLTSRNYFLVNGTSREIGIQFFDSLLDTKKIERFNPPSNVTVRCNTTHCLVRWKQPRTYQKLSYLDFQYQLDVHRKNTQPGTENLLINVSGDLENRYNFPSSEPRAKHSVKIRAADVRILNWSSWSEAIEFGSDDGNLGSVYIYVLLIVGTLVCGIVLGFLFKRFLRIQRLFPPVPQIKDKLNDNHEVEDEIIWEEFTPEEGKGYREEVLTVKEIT
# Assay: cell-based or functional assay
row,Binder,"IC50, TF-1 cell proliferation [µg/mL]"
1,"E35-scFv LD92G (scFv, V domains shown) VH: QMQLVQSGAEVKKPGASVKVSCKVSGYTLTELSIHWVRQAPGKGLEWMGGFDPEDGETIYAQKFQGRVTMTGDTSTDTAYLELSSLRSEDTALYYCATGRYTSLATTYGFDYWGQGTLVTVSS VL: EIVMTQSPATLSLSPGERATLSCRASQSVSSYLAWYQQKPGQAPRLLIYGASSRATGIPDRFSGSGSGTDFTLTISRLEPEDFAVYYCQQYGNWPYTFGQGTKLEIK",0.522
2,"E35-scFv LD92H (scFv, V domains shown) VH: QMQLVQSGAEVKKPGASVKVSCKVSGYTLTELSIHWVRQAPGKGLEWMGGFDPEDGETIYAQKFQGRVTMTGDTSTDTAYLELSSLRSEDTALYYCATGRYTSLATTYGFDYWGQGTLVTVSS VL: EIVMTQSPATLSLSPGERATLSCRASQSVSSYLAWYQQKPGQAPRLLIYGASSRATGIPDRFSGSGSGTDFTLTISRLEPEDFAVYYCQQYHNWPYTFGQGTKLEIK",0.53
3,"E35-scFv LD92I (scFv, V domains shown) VH: QMQLVQSGAEVKKPGASVKVSCKVSGYTLTELSIHWVRQAPGKGLEWMGGFDPEDGETIYAQKFQGRVTMTGDTSTDTAYLELSSLRSEDTALYYCATGRYTSLATTYGFDYWGQGTLVTVSS VL: EIVMTQSPATLSLSPGERATLSCRASQSVSSYLAWYQQKPGQAPRLLIYGASSRATGIPDRFSGSGSGTDFTLTISRLEPEDFAVYYCQQYINWPYTFGQGTKLEIK",0.597
4,"E35-scFv LD92S (scFv, V domains shown) VH: QMQLVQSGAEVKKPGASVKVSCKVSGYTLTELSIHWVRQAPGKGLEWMGGFDPEDGETIYAQKFQGRVTMTGDTSTDTAYLELSSLRSEDTALYYCATGRYTSLATTYGFDYWGQGTLVTVSS VL: EIVMTQSPATLSLSPGERATLSCRASQSVSSYLAWYQQKPGQAPRLLIYGASSRATGIPDRFSGSGSGTDFTLTISRLEPEDFAVYYCQQYSNWPYTFGQGTKLEIK",0.598
5,"E35-scFv LD92P (scFv, V domains shown) VH: QMQLVQSGAEVKKPGASVKVSCKVSGYTLTELSIHWVRQAPGKGLEWMGGFDPEDGETIYAQKFQGRVTMTGDTSTDTAYLELSSLRSEDTALYYCATGRYTSLATTYGFDYWGQGTLVTVSS VL: EIVMTQSPATLSLSPGERATLSCRASQSVSSYLAWYQQKPGQAPRLLIYGASSRATGIPDRFSGSGSGTDFTLTISRLEPEDFAVYYCQQYPNWPYTFGQGTKLEIK",0.881
6,"E35-scFv LN93D (scFv, V domains shown) VH: QMQLVQSGAEVKKPGASVKVSCKVSGYTLTELSIHWVRQAPGKGLEWMGGFDPEDGETIYAQKFQGRVTMTGDTSTDTAYLELSSLRSEDTALYYCATGRYTSLATTYGFDYWGQGTLVTVSS VL: EIVMTQSPATLSLSPGERATLSCRASQSVSSYLAWYQQKPGQAPRLLIYGASSRATGIPDRFSGSGSGTDFTLTISRLEPEDFAVYYCQQYDDWPYTFGQGTKLEIK",0.045
7,"E35-scFv LD92K (scFv, V domains shown) VH: QMQLVQSGAEVKKPGASVKVSCKVSGYTLTELSIHWVRQAPGKGLEWMGGFDPEDGETIYAQKFQGRVTMTGDTSTDTAYLELSSLRSEDTALYYCATGRYTSLATTYGFDYWGQGTLVTVSS VL: EIVMTQSPATLSLSPGERATLSCRASQSVSSYLAWYQQKPGQAPRLLIYGASSRATGIPDRFSGSGSGTDFTLTISRLEPEDFAVYYCQQYKNWPYTFGQGTKLEIK",0.64
8,"E35-scFv HE31N (scFv, V domains shown) VH: QMQLVQSGAEVKKPGASVKVSCKVSGYTLTNLSIHWVRQAPGKGLEWMGGFDPEDGETIYAQKFQGRVTMTGDTSTDTAYLELSSLRSEDTALYYCATGRYTSLATTYGFDYWGQGTLVTVSS VL: EIVMTQSPATLSLSPGERATLSCRASQSVSSYLAWYQQKPGQAPRLLIYGASSRATGIPDRFSGSGSGTDFTLTISRLEPEDFAVYYCQQYDNWPYTFGQGTKLEIK",0.11
